Measured values from the nanobody polyreactivity screen of Harvey et al. (2022).

Assay: yeast display, Sf9 membrane polyspecificity reagent, FACS + sequencing; frameworks hold sequencing errors
Procedure, shortened: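 A nanobody's polyreactivity label depends on the gate it was sorted from. Yeast display cells were stained with 10% biotinylated, detergent-solubilized Sf9 membrane reagent for 1 hour at 4 °C, enriched on streptavidin microbeads and sorted by FACS. The low and high (top ~1%) gates were set on anti-HA fluorescence for expression and streptavidin fluorescence for reagent binding.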

Sequence	polyreactivity (PSR sort gate)
QVQLVESGGGLVQAGGSLRLSCAASGNTFDGYDMGWYRQAPGKERELVAAITNTGASTYYADSVKGRFTISRDNAKNTVYLQMNSLKPEDTAVYYCTAQDSYPEDRHGMSYWGQGTQVTVSS	low polyreactivity
QVQLVESGGGLVQAGGSLRLSCAASGNTFDRNAMGWYRQAPGKERELVAGISWRGGSTYYADSVKGRFTISRDNAKNTVYLQMNSLKPEDTAVYYCAAQRRYSTITGYGSWGQGTQVTVSS	high polyreactivity
QVQLVESGGGLVQAGGSLRLSCAASGNTFDYYAMGWYRQAPGKERELVAAITRGGSTNYADSVKGRFTISRDNAKNTVSLQMNSLKPEDTAVYYCAAEQRAPRFADYDYWGQGTQVTVSS	low polyreactivity
QVQLVESGGGLVQAGGSLRLSCAASGNTFFDYDMGWYRQAPGKERELVATITNSGTSTYYTDSVKGRFTISRDNAKNTVYLQMNSLKPEDTAVYYCAADLFYAVLGNEYDYWGQGTQVTVSS	high polyreactivity
QVQLVESGGGLVQAGGSLRLSCAASGNTFFLYAMGWYRQAPGKERELVAVISASGGSTYFADSVKGRFTISRDNAKNTVYLQMNSVKPEDTAVYYCAKTPRTYYRYRNAFHYYYWGQGTQVTVSS	high polyreactivity
QVQLVESGGGLVQAGGSLRLSCAASGNTFGDNAMGWYRQAPGKERELDAAISTGGNTYYADSVKGRFTISRDNAKNSVYLQMNSLKPEDTAVYYCNAKWIPDTLFGIHETEGDYWGQGTQVTVSS	low polyreactivity
QVQLVESGGGLVQAGGSLRLSCAASGNTFGFYAMGWYRQAPGKERELVAGITSGDSTYYADSVKGRFTISRDNEKNTVYLQMNSLKPVDTAVYYCNADFTDSYWSRYDYWGQGTQVTVSS	low polyreactivity
QVQLVESGGGLVQAGGSLRLSCAASGNTFGGYAMGWYRQAPGKERELVAAIRYSGTSTYYADSVKGRFTISRDNAKNTVYLQMNSLKPEDTAVYYCAATYTRVPNRFYYWGQGTQVTVSS	high polyreactivity
QVQLVESGGGLVQAGGSLRLSCAASGNTFGNYGKGWYRQAPGKEREFVAAITSRGTSTYYADSVKGRFTISRDNAKNTVYLQMNSLKPEDTAVYYCNARPRYKYPRYDYWGQGTQVTVSS	high polyreactivity
QVQLVESGGGLVQAGGSLRLSCAASGNTFGRYAMGWYRQAPGKERELVAAITKRGGTTYYADSVKGRFTISRDNAKNTVYLKMNSLKPEDTAVYYCAAKRSVLRTADYDYWGQGTQVTVSS	high polyreactivity
QVQLVESGGGLVQAGGSLRLSCAASGNTFGTYVMGWYRPAPGKERELVAAISQSGGSTDYADSVKGRFTISRDNAKYTVYLQMNSLKPEETAVYYCAKVTWGTVWYRSPSEYDYWGQGTQVTVSS	low polyreactivity
QVQLVESGGGLVQAGGSLRLSCAASGNTFHPYAMGWYRQAPGKVRELVAAITKSGGSTYYADSVKGRFTISRDNAKNTVYLQMNSLKPEDTAVYYCATDGYEYTDYGSSGYDYWGQGTQVTVSS	low polyreactivity
QVQLVESGGGLVQAGGSLRLSCAASGNTFHSNAMGWYRQAPGKERELVAAITPSDGDTYYADSVKGRFTISRDNAKNTVYLQMNSLKPEDTSVYYCAAEDDPGEYEYWGQGTQVTVSS	low polyreactivity
QVQLVESGGGLVQAGGSLRLSCAASGNTFKGYAMGWYRQAPGKERELVAAISWSGSSTYYADSVKGRFTISRDNAKNTVYVQMISLKPEDTAVYYCNRKYLGRYASVYGYGYWGQGTQVTVSS	high polyreactivity
QVQLVESGGGLVQAGGSLRLSCAASGNTFLRNTMGWYRQAPGKERELVAAISWGGGTTYYADSVKGRFTISRDNAKNTVYLQINSLKPEDSAVYYCNARYYSRRGNSWGQGTQVTVSS	high polyreactivity
QVQLVESGGGLVQAGGSLRLSCAASGNTFLRYAMGWYRQAPGKERELVAAISTSGDSTYYADSVKGRFTISRDNAKNTVYLQMNSLKPEDTAVYYCAAAWYIHTIAYGCWGQGTQVTVSS	high polyreactivity
QVQLVESGGGLVQAGGSLRLSCAASGNTFLYYGMGWYRQAPGKERELVAAITSGGITYYADSVKGRFTISRDNAKNTVYLQMNSLKPEETAVYFCNKDVGFTRPLYYWGQGTQVTVSS	low polyreactivity
QVQLVESGGGLVQAGGSLRLSCAASGNTFNRYAMGWYRQAPGKESELVATISYRGGSTSYADSVKGRFTISRDNAKNTVYLQMNSLKPEDTAVYYCATEEGYVLYKYYSWGQGTQVTVSS	low polyreactivity
QVQLVESGGGLVQAGGSLRLSCAASGNTFNYYTMGWYRQEPGKERELVAAIRSGGRTYYADSVKGRFTISRDNAKNTVYLLMNSLIPEDTAVYDCAAVAVTYRYDYWGQGTQVTVSS	high polyreactivity
QVQLVESGGGLVQAGGSLRLSCAASGNTFPGYAMGWYRQAPGKEREFVATITSNDGTTYYADSVKGRFTISRDNAKNTVYLQLNSLKPEDTAVYYCAKRLSDSWPPNWGYNYWGQGTQVTVSS	low polyreactivity
QVQLVESGGGLVQAGGSLRLSCAASGNTFPINAMGWYRQAPGKERELVATITRPGGSTYYADSVKARFTISRDNAKNTVYLQMNSLKPEDTAVYYCAAANYTYASRWYDYWGQGTQVTVSS	low polyreactivity
QVQLVESGGGLVQAGGSLRLSCAASGNTFPIYAMGWSRQAPGKERELVAAIRSSTGSTYYADSVKGRFTISRDYAKNTVYLQMNSLKPEATAVYYCAAAGVTSVVYGTRYYYWGQGTQVTVSS	high polyreactivity
